Consider 41 sequences from the nanobody polyreactivity screen of Harvey et al. (2022).

This data set is described as follows: yeast display, Sf9 membrane polyspecificity reagent, FACS + sequencing; frameworks hold sequencing errors. The procedure, abridged: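 After 36–48 hours of galactose induction, yeast (Saccharomyces cerevisiae BJ5465) displaying a synthetic nanobody library were stained at 4 °C for 1 hour with 10% biotinylated, detergent-solubilized Sf9 membrane reagent. Streptavidin microbeads enriched the stained cells before FACS sorting into low and high (top ~1%) gates on anti-HA and streptavidin fluorescence. Each clone's polyreactivity label reflects its gate of origin.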
Regarding “QVHLVESGGGLVQAGGSLRLSSADSGRTFAYNAMRWYRPAPGKERELVAAITWSGDSTYYADSVKGRFTISRDNAKNTVYFQMNSLKPEDTEVYYCAADYFGGPSYEFDYWGQGTQVTVSS”, the “polyreactivity (PSR sort gate)” value is on record as “low polyreactivity”. In the case of “QVQLVESAGGLVQAGGSLRLSCAASGRIFLYNAMGWYRQAPGKERELVAVISSNGGRTYYADSVKGRFTISRDNAKNTVYLQMNSLKPEDTAVYYCAAVQHYVTHMDYWGQGTQVTVSS” it was “low polyreactivity”; in that of “QVQLVDSGGGLVQAGASLRLSCAASGSTLSYYTMGWYRQAPGKERELVAAISWRGGSTYYADSVKGRFTISRDNAKNTVYLQMNSLKPEDTAVYYCATAIRGSPDSSLYYYWGQGTQVTLSS”, “high polyreactivity”; in that of “QVQLVESGGGLVQAGGSLRLSCAASGRTLYTNAMGWYRQAPGKERELVAAITSGASTNYADSVKGRFTISRDNAKNSVYLQMNSLKPEDTSVYYCASRTYHLWNARRYDYWGQGTQVTVSS”, “low polyreactivity”. On to “QVQLVESGGGLVQAGGSLRLSCAASGSTFPPYVMGWYRQAPGKERELVAAITWSSGSTYYADSVKGRFTISRDNAKNTVYLQMNSLKPEDTAVYYCAAKWLGYGFDYWGQGTQVTVSS”, for which the “polyreactivity (PSR sort gate)” value was “low polyreactivity”. Next, “QVQLVESGGGLVQAGGSLRLSCAASGIIFRWYVMGWYRQSPGKERELVAAITNGGRTYYADSVKGRFTISRDNAKNTVYLQMNSLKPEDTEVYYCAAYFRRKMDYWGQGTQVTVSS”: “high polyreactivity”; “QVQLVESDGGLVQAGGSLRLSCAASGIIFGYYVMGWYRPAPGKERELVASITSGGSTNYADSVKGRFTISRDNAKNTVYFQMNSLKPEDTAVYYCAAEERTDTIPGWRYPHDYWGQGTQVTVSS”: “low polyreactivity”.

With “QVQLVESGGGLVQAGGSLRLSCAASGRIFKTYAMGWYRQAPGKERELVAAISIRGGSTYYAESVKGRFTISRDNAKNTVYLQMNSLKPEDTAVYYCNALYGRQIVDYDYWGQGTQVTVSS”, the “polyreactivity (PSR sort gate)” value was “low polyreactivity”. Next, “QVQLVESGGGLVQAGGSLRLSCAASGRIFSEYAMGWYRQAPGKERELVAAITRRGGSTYYADSVKGRFTISRDNAKNTVYLQMNSLKPEDTAVYYCNALLTGGYQDSYPDDYWGQGTQVTVSS”: “high polyreactivity”; “QVQLVESGGGLVQAGGSLRLSCAASGSIFRAYAMGWYRQAHGKERELVAAITGNGARTYYADSVKGRFTISRDNAKNTVYLQMNSLKPEDTAVYYCAKRGNRQHRWWYDYWGQGTQVTVSS”: “low polyreactivity”.

“QVQLVESGGGLVQAGGSLRLSCAASGYILPHNAMGWSRQAPGKDGEMVAAITSSGGSTYYADSVKGRVTISRDNAKNTVYLQMNSLKPEDTAVYYCNTDQYSPYEYSSFDSWGQGTQVTVSS”: the “polyreactivity (PSR sort gate)” value was “low polyreactivity”. Next, “QVQLVESGGGLVQAGGSLRLSCAASGSTFNLYAMGWYRQAPGKERELVASISRSGVSTYYADSVKGRFTISRDNAKNTVYLQMNSLKPEDTAVYYCAVDKVLYRLYTGMDYWGQGTQVTVSS”: “low polyreactivity”. Next, “QVQLVESGGGLVQAGGSLRLSCAASGSIFDDYAMGWSRQAPGKERELVAASSGGVSTNYADSVKGRFTISRDNAKNTVYLQMNSLKPEDTAVYYCNADYAGAYIHDYWGKGTQVTVSS”: “low polyreactivity”. For the sequence “QVQLVQSGGGLVQAGGSHRLSCAASGFIFPVYAMGWYRQPPGKERELFASMTTGGSTNYADSVKGRFTITRDNAKNSVYLQMNSLKPEDTAVYDCNQDTPASLANQYNYGGQGTQVTVSS”, the “polyreactivity (PSR sort gate)” value was “low polyreactivity”. As to “QVQLVESGGGLVQAGGSLRLSCAASGFIFLGNVMGWYRQAPGKERELVAAINWSDGSTYYADSVKGRFTISRDNAKNTVYLQMNSLKPEDTAVYYCNVDAGVEGGTVDYWGQGTQVTVSS”, the “polyreactivity (PSR sort gate)” value was “low polyreactivity”. “QVQLVESGGGLVQAGGSLRLSCAASGRTLGQNAMGWYRQAPGKERELVASIRSGGITDYADSVKGRFTISRDNAKNTVYLQMNCLKPEDTAVYYCAADTYGYQGSAGGHWGQGTQVTVSS”: the “polyreactivity (PSR sort gate)” value was “low polyreactivity”. As for “QVQLVESGGGLVQAGGSLRLSCAASGRIFRHYAMGWYRQAPGKERELVAAINWNGGSTYYADSVKGRFTISRDNAKNTVYLQMNSLKPEDTAVYYCAARYRYVRGMDYWGQGTQVTVSS”, the “polyreactivity (PSR sort gate)” value is “high polyreactivity”.

On to “QVQLVESGGGLVQAGGSLRLSCAASGRTFGRYAMGWYRQAPGKERELVAAISSSGGRTNYADSVKGRFTISRDNAKNTVYLQMNSLKPEDTAVYYCAAAGQRPYEKGDYWGQGTQVTVSS”, for which the “polyreactivity (PSR sort gate)” value is recorded as “low polyreactivity”. Consider “QVQLVESGGGLVQARGSLRLSCAASGITFYFNAMGWYRQAPGKERELVAVITSGGSTNYADSVKGRFTISRDNAKNTVYLQMISLKPEDTAVYYCATDKSYSSWSAQYDYWRQGTQVTVSS”, for which the “polyreactivity (PSR sort gate)” value is given as “low polyreactivity”. For “QVQLVESGGGLVQAGGSLRLSCAASGRTFTPYAMGWYRQAPGKERELVAAIDTSGGSTYADSVKGRFTISRDNAKNTVYLQMNSLKPEDTAVYYCAATRHSRVRGGDYWGQGTQVTVSS”, the “polyreactivity (PSR sort gate)” value was “low polyreactivity”.

As for “QVQLVESGGGLVQAGGSLRLSCAASGSTFSANDMGWDRQAPGKEREFVAAITTSDDSTYYADSVKGRYTISRDNAKNTVYLQMNSLKPEDTAVYYCNAYSGYSFFGLCFFYKYDYWGQGTQVTVSS”, the “polyreactivity (PSR sort gate)” value is on record as “low polyreactivity”. Next, “QVQLVESGGGLVQAGGSLRLSCAASGRIFGANAMGWYRQAPGKERELVAAISRTGGSTYYADSVKGRFTISRDNAKNTVYLQMNSLKPEDTAVYYCNAVYRYAHPMEYWGQGTQVTVSS”: “high polyreactivity”. As to “QVQLVESGGGLVQAGGSLRLSCAASGRIFGVYAMGWYRQAPGKDREFVASITRGGGRTYYADSVKGRFTISRDNAKNTVYLQMNSLKPEDTAVYYCNAVVNSYPYYYWGQGTQVTVSS”, the “polyreactivity (PSR sort gate)” value is given as “high polyreactivity”.

On to “QVQLVESGGGLVQAGGSLRLSCAASGRIFSGNAMGWYRQAPGKERELVAAITWSGSSTFYADSVKGRFTISRDNAKNTVYLQMNSLKPEDTAVYYCAVDSSSPVRPHTDEDYWGQGTQVTVSS”, for which the “polyreactivity (PSR sort gate)” value is given as “low polyreactivity”. With “QVQLVESGGGLVQAGGSLRLSCAASGFNFRGYAMGWYRQAPGKERELVAAINSGDSTNYADSVKGRFTISRDNAKNTVYLQMNSLKPEDTAVYYCAASIYAALNGGPGYDYWGQGTQVTVSS”, the “polyreactivity (PSR sort gate)” value is listed as “low polyreactivity”. Next, “QVQLVESGGGLVQAGGSLRLSCAASGLTFPANVMGWYRQAPGKERELVAAISRSGGTTYYADSVKGRFTISRDNAKNTVYLQMNILKPEDTAVYYCAAYQVSYFGGSMDYWGQGTQVTVSS”: “high polyreactivity”; “QVQLVESGGGLVQAGGSLRLSCAAYGSILRTYAMGWYRQAPGKERELVAAISSSGGSTYYADSVKGRFTISRDNAKNTVYLQMNSLKPEDTAVYYCAARYRYYYTRYDYWGQGTQVTVSS”: “high polyreactivity”. For “QVQLVDSGGGLVHAGGSLRLSCAASGRTFFINTMGWYRQPPGKEREFVAAITWSAGRTYYADSVKGRITISRDNAKNTVYLQMISLKPEDTAVYYCAAALDGHTFPFYYWGQGTQVTVSS”, the “polyreactivity (PSR sort gate)” value is listed as “low polyreactivity”. In the case of “QVQLVESGGGLVQAGGSLRLSCAASGSIFGSNAMGWYRRAPGKERELVAVINASGASTYYADSVKGRFTISRDNAKNTVYLQKNSLKPEDTAVYYCAKDPFPFPGGDYWGQGTQVTVSS”, the “polyreactivity (PSR sort gate)” value is “low polyreactivity”. For the sequence “QVQLVESGGGLVQAGGSLRLTCAASGSTFGLNAMGWYRQAPAKERELVAAITSRGTRTYYADSVKGRFTISRDNAKNTVYLQMNSLKPEDTAVYYCGKDSGATRYGEYDYWGQGTQVTVSS”, the “polyreactivity (PSR sort gate)” value is on record as “low polyreactivity”. On to “QVQLVESGGGLVQAAGSLRLSCAASGLTFFGYAMGWYRQAPGKERELVAAISSSGTRTYYADSVKGRFTISRDHAKNTVYLQMNSLKPEDTAFYYCASGRYQEYDYWGQGTQVTVSS”, for which the “polyreactivity (PSR sort gate)” value is “high polyreactivity”.

Consider “QFQLVESGGGLVQAGGSLRLSCAASGFIIKFYAMGLYRQAPGKERELVATITFSSGTTYYADSVKGRFTISRDTAKNTVYLQLNSLKPEDTAVYYCAAERGVDDSARNGDYDYWGQGTQVTVSS”, for which the “polyreactivity (PSR sort gate)” value is “low polyreactivity”. In the case of “QVQLVESGGGLVQAGGSLRLSCAASGSTLHVYVMGWYRQAPGKERELVAAISYSGGITYYADSVKGRFTISRDNAKNTVYLQMNSLKPEDTAVYYCAARIISYRVRGKSRHDYWGQGTQVTVSS” it was “low polyreactivity”; in that of “QVQLVESGGGLVQAGGSLRLSCAASGSTFVKNTMGWYRQAPGKERELVAAIRSSGGSTYYADSVKGRFTISRDNAKNTVYLQMNSLKPEDTAVYYCAAGRGPEGTDDSWGQGTQVTVSS”, “high polyreactivity”. On to “QVQLVESGGGLVQAGGSLRLSCAASGGTFKLYAMGWYRQAPGKERELVAAISRRGGSTYYADSVKVRFTISRDNAKNTVYLQMNSLKPEDTAVYYCAAPGPTQSTQRGGYWGQGTQVTVSS”, for which the “polyreactivity (PSR sort gate)” value is given as “high polyreactivity”. Turning to “QVQLVESGGGLVQAGGSLRLSCAASGLTFRTYTMGWYRQAPGKERELVAAISSSGSTKYADSVKGRFTISRDNAKNTVYLQMICLKPEDTAVYYCAARGRIYFTQYGYWGQVTQVTVSS”, the “polyreactivity (PSR sort gate)” value is “high polyreactivity”. As for “QVQLVESGGGLVQAGGSLRLSCASSGFTLYANAMGGYRQAPGKERELVADISESGSSTSYADSVKGRFTISRDNAKNTVYLQMKSLKPEDTAVYYCYDYWVQGTQVTVSS”, the “polyreactivity (PSR sort gate)” value is listed as “low polyreactivity”.

Turning to “QVQLVESGGGLVQAGGSLRLSCAASGITFPRYAMGGYRPAPGKERELVATITRTGRTNYADSVKGRFTISRDNAKNTVYLQKNSLKPEDTPVYYCAARNRRERKGKMDYWGQGTQVTVSS”, the “polyreactivity (PSR sort gate)” value was “high polyreactivity”. Turning to “QVQLLESGGGLVQAGGSRRLSCAASGSTFYGYAMGWYRQAPGKEREFVAAITTSGGSTYYADSVKGRFTISRDNAKNTVYLQMNSLKPEDTAVYYCAADAPSWYDRQYDYWGQGTQVTVSS”, the “polyreactivity (PSR sort gate)” value is given as “low polyreactivity”. “QVQLVESGGGLVQAGGSLRLRCAASGNTFFGYDMGWYRQAPGKERELVAAISGSGGGTYYADSVKGRFTISRDNAMNTVYLQMNCLKPEDTAVYYCAADSPQTEGYWGEGTQVTVSS”: the “polyreactivity (PSR sort gate)” value was “low polyreactivity”. Next, “QVQLVESGGGLVQAGGSLRLSCAASGSIFNANAMGWYRQAPGNERELVAGIRSGSSTNYADSVKGRFTISRDNAKNTVYLQMNSLKPEDTAVYYCATEGYWVYGFDDEYWGQGTQVTVSS”: “low polyreactivity”.
